Assays:
[1] = target: T1, LmGAPDH (glyceraldehyde-3-phosphate dehydrogenase) (Leishmania major (strain 5ASKH), UniProt Q4Q6Z5 1-361); test: EMSA; no complex also at higher LmGAPDH concentrations; conditions: protein: recombinant; tags: His tag (pET15B NdeI/BamHI, Ni-NTA); chain copies: 4; label: 3' biotin; single strand
[2] = target: T1, LmGAPDH (glyceraldehyde-3-phosphate …); test: EMSA; concentration dependent; supershift with anti-LmGAPDH; conditions: protein: recombinant; tags: His tag (pET15B NdeI/BamHI, Ni-NTA); chain copies: 4; label: 3' biotin; single strand
[3] = target: T1, LmGAPDH (glyceraldehyde-3-phosphate …); test: competition; about 200-fold excess unlabeled RNA competes with labeled N1; conditions: protein: recombinant; tags: His tag (pET15B NdeI/BamHI, Ni-NTA); chain copies: 4; label: none; single strand

B1: TNF-alpha 5'-UTR oligonucleotide (ssRNA)
RNA: AGAACAUCUUGGAAAUAGCUCCCAGAAAAGCAAGCAGC
binding result [1]: no binding

B2: TNF-alpha 3'-UTR ARE38 (ssRNA)
RNA: GUGAUUAUUUAUUAUUUAUUUAUUAUUUAUUUAUUUAG
binding result [2]: binds

B3: TNF-alpha 3'-UTR ARE38, unlabeled competitor (ssRNA)
RNA: B2 RNA
binding result [3]: binds

Reference: PMC8502904, “Glyceraldehyde-3-phosphate dehydrogenase present in extracellular vesicles from Leishmania major suppresses host TNF-alpha expression”
